Results reported in article PMC6828814, “A cryptic hydrophobic pocket in the polo-box domain of the polo-like kinase PLK1 regulates substrate recognition and mitotic chromosome segregation” (Scientific Reports, 2019).
Blank lines part the entries; values can stand above or below the molecule they belong to.

Key:
[1] = molecular target: T1, PLK1 (polo-like kinase 1) polo-box domain (Homo sapiens, UniProt P53350); test: crystal structure (soaking) and competitive fluorescence polarisation with TAMRA-labelled PBIP1 phosphopeptide; format: binding
T1 construct: polo-box domain (PBD), recombinant
T1 sequence (P53350 367-603 limits assumed): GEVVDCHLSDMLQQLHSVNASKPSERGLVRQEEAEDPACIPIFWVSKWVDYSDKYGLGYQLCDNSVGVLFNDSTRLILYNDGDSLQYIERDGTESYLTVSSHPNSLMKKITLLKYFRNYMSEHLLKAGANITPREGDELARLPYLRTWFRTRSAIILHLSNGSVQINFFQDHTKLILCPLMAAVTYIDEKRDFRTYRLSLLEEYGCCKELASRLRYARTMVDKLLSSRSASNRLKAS

[2] = molecular target: PLK1 (UniProt P53350); test: GFP-Trap co-IP, anti-NEDD1 immunoblot; conditions: reference: GFP-PLK1Wt
[3] = molecular target: PLK1 (UniProt P53350); test: V5 co-IP, immunoblot; conditions: reference: PBIP1Wt-V5; sites T78

IC50 [1]: 115 ± 24 µM
Molecule: O=C(Nc1cccc(C(C(=O)O)C(=O)O)c1)c1ccc(C(=O)c2cccc(I)c2)s1 [Polotyrin]

other: IP band intensity normalised to input [2]: lost; reference 0.2
Molecule: NEDD1 (from UniProt Q8NHV4) GFP-PLK1AM (H538A/K540M)

other: IP band intensity normalised to input [3]: weaker; reference 2.5
Molecule: PBIP1 (Polo-Box Interacting Protein 1) (from UniProt Q71F23) PBIP1-T78A-V5
